In patent US20250327097A1, “ORGANISMS PRODUCING LESS CROTONIC ACID” (Global Bioenergies, priority 2021, published 2025):
Positions count from the first letter of the chain named. Names may count otherwise.

B1: E224P-I283T-N285P-N287T-Q290E-S322T-N388M-S389H-K394R-C430A-i430aG-L432F-L434W-S436N-I453L-dG462 (protein)
chain: MFLKSLREQINLLKRQGDLRIINRPVDSYLEAAAIIRRSTETKAPVPLMTNIKGYPGCSIVGGLAALSSNPEYPLSRVAMSLGLSTTASAQSIVQYLIDGLKKTPYLPVEIDSNSAPCKQNILRGEDASLAHFPIPQVHQHDGNRYVNTWGVFIVESPDGQWCNWSIQRVQYLNDRQMIALVFPSQHISDIWEEWVKIGKPMPYALVQGCEPIVPYIAGLPLLPRNVNEAEYIGALYGKGIEVVKCETHDLRVPASSEVVIEGYFAITREGVEGPFGEFAGYTPPETSLEPILSITAISWQDDPIWPVVAEGKPVDEYHTCTGIGDAAAIQNVLLTANLPVSFVWVPLYSACHLMIVSINRHWRQTHPDLTSEQLTKKVGDVIHQTRMHIKLPRIVVLDDDVDPADTESLLWALATRIHPERKRYFYESAIFPWLNCYSEEERHNRKGKRVILDALLPENHGAISSFDYAYPDDIKQRVLMHWETDFSHD
B2: I283T-P284D-i284aP-N287P-S322T-N388M-I418V-E421V-C430N-L432F-L434W-S436N-C437F-H461T-G462R-i462aA-A463T (protein)
chain: MFLKSLREQINLLKRQGDLRIINRPVDSYLEAAAIIRRSTETKAPVPLMTNIKGYPGCSIVGGLAALSSNPEYPLSRVAMSLGLSTTASAQSIVQYLIDGLKKTPYLPVEIDSNSAPCKQNILRGEDASLAHFPIPQVHQHDGNRYVNTWGVFIVESPDGQWCNWSIQRVQYLNDRQMIALVFPSQHISDIWEEWVKIGKPMPYALVQGCEPIVPYIAGLPLLERNVNEAEYIGALYGKGIEVVKCETHDLRVPASSEVVIEGYFAITREGVEGPFGEFAGYTDNEPSLQPILSITAISWQDDPIWPVVAEGKPVDEYHTCTGIGDAAAIQNVLLTANLPVSFVWVPLYSACHLMIVSINRHWRQTHPDLTSEQLTKKVGDVIHQTRMSIKLPKIVVLDDDVDPADTESLLWALATRVHPVRKRYFYESNIFPWLNFYSEEERHNRKGKRVIIDALLPENTRTISSFDYAYPDDIKQRVLMHWETDFSHD
B3: V272I-I283T-P284D-i284aP-N287P-S322T-N388M-E421V-C430R-L432F-L434W-S436N-C437F-H461T-G462R-i462aA-A463T (protein)
chain: B2 chain with V272I, V418I, N430R
B4: V272I-I283T-P284D-i284aP-N287P-S322T-N388M-E421V-C430N-L432F-L434W-S436N-C437F-Y438L-H461T-G462R-i462aA-A463T (protein)
chain: B2 chain with V272I, V418I, Y438L
B5: V272R-I283T-P284D-i284aP-N287P-S322T-N388M-I418V-E421V-C430N-L432F-L434W-S436N-G448E-H461T-G462R-i462aA-A463T (protein)
chain: B2 chain with V272R, F437C, G448E
B6: I283T-P284D-i284aP-N287P-S322T-N388M-E421V-C430N-L432F-L434W-S436Q-C437F-H461T-G462R-i462aA-A463T (protein)
chain: B2 chain with V418I, N436Q
B7: V272R-I283T-P284D-i284aP-N287P-S322T-N388M-E421V-C430N-L432F-L434W-S436N-E441H-G448E-H461T-G462R-i462aA-A463T (protein)
chain: B2 chain with V272R, V418I, F437C, E441H, G448E
B8: K43E-I283T-P284D-i284aP-N287P-S322T-N388M-E421V-C430P-L432F-L434W-S436N-C437F-H461T-G462R-i462aA-A463T (protein)
chain: B2 chain with K43E, V418I, N430P
B9: I283T-P284D-i284aP-N287P-S322T-N388M-E421V-C430N-L432F-L434W-S436N-C437F-E441V-H461T-G462R-i462aA-A463T (protein)
chain: B2 chain with V418I, E441V
B10: I283T-P284D-i284aP-N287P-S322T-N388M-E421V-C430N-L432F-L434W-S436N-C437F-Y438L-H461T-G462R-i462aA-A463T (protein)
chain: B2 chain with V418I, Y438L
B11: V272R-I283T-P284D-i284aP-N287P-S322T-N388M-E421V-E428T-C430N-L432F-L434W-S436N-G448E-H461T-G462R-i462aA-A463T (protein)
chain: B2 chain with V272R, V418I, E428T, F437C, G448E
B12: I283T-P284D-i284aP-N287P-S322T-N388M-E421V-C430R-L432F-L434W-S436N-C437F-Y438L-H461T-G462R-i462aA-A463T (protein)
chain: B2 chain with V418I, N430R, Y438L
B13: S39G-V272R-I283T-P284D-i284aP-N287P-S322T-N388M-E421V-F426L-E428T-C430N-L432F-L434W-S436N-G448E-H461T-G462R-i462aA-A463T (protein)
chain: B2 chain with S39G, V272R, V418I, F426L, E428T, F437C, G448E
B14: V272R-I283T-P284D-i284aP-N287P-S322T-N388M-E421V-E428T-C430N-L432F-L434W-S436N-K447I-G448E-H461T-G462R-i462aA-A463T (protein)
chain: B2 chain with V272R, V418I, E428T, F437C, K447I, G448E
B15: G17S-V272R-I283T-P284D-i284aP-N287P-S322T-N388M-E421K-C430N-L432F-L434W-S436N-G448E-H461T-G462R-i462aA-A463T (protein)
chain: B2 chain with G17S, V272R, V418I, V421K, F437C, G448E
B16: V272I-I283T-P284D-i284aP-N287P-S322T-N388M-E421V-C430R-L432F-L434W-S436N-C437F-Y438L-H461T-G462R-i462aA-A463T (protein)
chain: B2 chain with V272I, V418I, N430R, Y438L
B17: I283T-P284D-i284aP-N287P-S322T-N388M-E421V-C430R-L432F-L434W-S436N-C437F-H461T-G462R-i462aA-A463T (protein)
chain: B2 chain with V418I, N430R
B18: G380V-K391L-L432W-L434M (protein)
chain: MFLKSLREQINLLKRQGDLRIINRPVDSYLEAAAIIRRSTETKAPVPLMTNIKGYPGCSIVGGLAALSSNPEYPLSRVAMSLGLSTTASAQSIVQYLIDGLKKTPYLPVEIDSNSAPCKQNILRGEDASLAHFPIPQVHQHDGNRYVNTWGVFIVESPDGQWCNWSIQRVQYLNDRQMIALVFPSQHISDIWEEWVKIGKPMPYALVQGCEPIVPYIAGLPLLERNVNEAEYIGALYGKGIEVVKCETHDLRVPASSEVVIEGYFAITREGVEGPFGEFAGYIPNENSLQPILSITAISWQDDPIWPVVAEGKPVDEYHTCSGIGDAAAIQNVLLTANLPVSFVWVPLYSACHLMIVSINRHWRQTHPDLTSEQLTKKVVDVIHQTRNSILLPKIVVLDDDVDPADTESLLWALATRIHPERKRYFYESCIWPMLSCYSEEERHNRKGKRVIIDALLPENHGAISSFDYAYPDDIKQRVLMHWETDFSHD

Test system: 3-methylcrotonic acid
Type: biochemical, Yersinia frederiksenii
Design: key: “+” representing a low increase in activity; “++++” representing a high increase in activity

Row | Molecule | Activity relative to WT
1 | B1 | ++++
2 | B2 | ++++
3 | B3 | ++++
4 | B4 | ++++
5 | B5 | ++++
6 | B6 | ++++
7 | B7 | ++++
8 | B8 | ++++
9 | B9 | ++++
10 | B10 | ++++
11 | B11 | ++++
12 | B12 | ++++
13 | B13 | ++++
14 | B14 | ++++
15 | B15 | ++++
16 | B16 | ++++
17 | B17 | ++++
18 | B18 | +
